{"source": "paper PMC7870846", "about": "“Incorporation of sensing modalities into de novo designed fluorescence-activating proteins” (Nature Communications, 2021)", "molecules": {"B1": {"name": "mFAP2b: mFAP2.5 with V67I, \"b\" for bright (protein)", "chain": "SRAAQLLPGTWQVTMTNEDGQTSQGQWHFQPRSPYTMDIVAQGTISDGRPIVGYGKATVKTPDTLDIDITYPSLGNIKAQGQITMDSPTQFKWDATTKGENDFHGRLTGTLQRQE"}}, "key": {"[1]": {"test": "Photophysical characterization: absorbance, excitation/emission spectra, extinction coefficients, quantum yields", "assay_type": "physicochemical", "protocol": "Protein preparation: mFAP2a, mFAP2b, and mFAP10 were produced by large-scale protein purification and SEC purification, and dialyzed overnight into DPBS that was adjusted to pH 7.40 using NaOH.\nChromophore preparation: DFHBI (Lucerna) and DFHBI-1T (Lucerna) were dissolved to 20.0 mM in 100% DMSO, and diluted in DPBS (pH 7.40) to measure absorbances on a Jasco V-750 spectrophotometer at peak absorbance wavelengths (417 nm for DFHBI and 422 nm for DFHBI-1T). Following background subtraction of identical buffer without chromophore, Beer’s Law was used to calculate the molar chromophore concentrations of the stock solutions using previously reported extinction coefficients.\nPreparation of protein–chromophore complexes: For quantum yield measurements, 1.00 μM, 836 nM, or 919 nM chromophore solutions in DPBS (pH 7.40) at 4.00 mL final volumes were prepared for the following eight conditions: DFHBI only, DFHBI-1T only, 43.5 µM 6xHis-mFAP10 with DFHBI, 43.5 µM 6xHis-mFAP10 with DFHBI-1T, 134 μM 6xHis-mFAP2a with DFHBI, 134 μM 6xHis-mFAP2a with DFHBI-1T, 206 μM 6xHis-mFAP2b with DFHBI, and 206 μM 6xHis-mFAP2b with DFHBI-1T.\nExtinction coefficients: Absorbance spectra of protein–chromophore complexes were first measured with a Thermo Scientific BioMate 3S UV–Vis Spectrophotometer (1 nm interval, 800 nm min^−1). The extinction coefficients were then calculated using Beer’s Law:12 A=ε⋅b⋅c, where A is peak absorbance, ε is extinction coefficient, b is path length (1 cm), and c is concentration (1.00 μM, 836 nM, or 919 nM).\nRelative quantum yield: A Perkin-Elmer LS-B Luminescence Spectrophotometer (10 nm bandwidth, 1 nm interval, 100 nm min^−1) was used. The fluorescence emission spectra of the protein–chromophore complexes (in DPBS, pH 7.40) and reference dye Acridine Yellow G (in methanol) were first obtained, and the quantum yield was then calculated using the equation[53]:13 ϕc=ϕr⋅1−10^−Ar(λex)/1−10^−Ac(λex)⋅∫Fc(λ)⋅dλ/∫Fr(λ)⋅dλ⋅nc2/nr2, where ϕ is quantum yield, A(λex) is absorbance at the excitation wavelength λex ( λex = 440 nm), F is fluorescence emission, n is refractive index of the solution (1.3350 for DPBS at pH 7.40 and 1.3284 for methanol), and the subscripts “c” and “r” refer to the protein–chromophore complex measured and the reference dye, respectively. […]\nAbsolute quantum yield: An integrating sphere instrument (Hamamatsu C9920-12) (6 nm excitation bandwidth, 1 nm interval) and a high-sensitivity photonic multi-channel analyzer (Hamamatsu C10027-01) were used to measure a light emission spectrum. Absolute quantum yields were measured for solutions of protein–chromophore complexes in DPBS (pH 7.40) in which ≥95% of the total chromophore was occupying the protein-binding pocket (Table 1). […]"}, "[2]": {"test": "Ca2+-responsive mFAP Ca2+ titrations", "assay_type": "binding", "details": "Ca2+ titration with excess DFHBI", "how_it_was_run": "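Purified protein at 500 nM with 5.00 μM DFHBI titrated over eleven 10-fold CaCl2 dilutions plus a no-Ca2+ condition in high-salt Tev cleavage buffer; endpoint fluorescence at ex 484/em 508 nm, protein-free background subtracted. Triplicate means fit to a single-site isotherm, Hill coefficient 1, for Kd.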"}}}
{"molecule": "B1", "values": [{"measurement": "brighter fluorescence with DFHBI than DFHBI-1T", "setting": "[1]", "value": "~ 30 fold"}, {"measurement": "Ca2+-responsiveness / allostery between DFHBI and Ca2+ binding", "setting": "[2]", "value": "lack of Ca^2+-responsiveness"}]}
